Patent US20250361274A1, “PEPTIDE AND PEPTIDE-CONTAINING AGENT” (PEPTIDREAM INC., priority 2022, published 2025)
Numbered stars: 1 amine (or outer) side, 2 acyl side, 3 side chain; on linkers, the order of the positions; unused ones are H or OH. Bridge positions count the residues as written; N and C are the ends. Square brackets hold non-standard residues; d marks the D form. Ends that are not written are not given here. KCOpipzaa = N6-(4-(carboxymethyl)piperazine-1-carbonyl)-L-lysine, O=C(NCCCC[C@H](N[*:1])C(=O)[*:2])N1CCN(CC(=O)[*:3])CC1; Bph3F = (S)-2-amino-3-(3'-fluoro-[1,1'-biphenyl]-4-yl)propanoic acid, O=C([C@H](Cc1ccc(-c2cccc(F)c2)cc1)N[*:1])[*:2]; 3Pal(6-Ph) = N[C@@H](Cc1ccc(-c2ccccc2)nc1)C(=O)O; Phe(4-COOH) = N[C@@H](Cc1ccc(C(=O)O)cc1)C(=O)O; NMePhe(4-Me) = CN[C@@H](Cc1ccc(C)cc1)C(=O)O; Bip = N[C@@H](Cc1ccc(-c2ccccc2)cc1)C(=O)O; Pro(cis-4-F) = O=C(O)[C@@H]1C[C@H](F)CN1; Phe(4-F) = N[C@@H](Cc1ccc(F)cc1)C(=O)O; Ala(4-THP) = N[C@@H](CC1CCOCC1)C(=O)O; Ala(cPent) = N[C@@H](CC1CCCC1)C(=O)O; cisHyp = O=C(O)[C@@H]1C[C@H](O)CN1; Hyp = O=C(O)[C@@H]1C[C@@H](O)CN1; NMeF = CN[C@@H](Cc1ccccc1)C(=O)O; 4Pal = N[C@@H](Cc1ccncc1)C(=O)O; Aad = N[C@@H](CCCC(=O)O)C(=O)O; Cha = N[C@@H](CC1CCCCC1)C(=O)O; Cba = N[C@@H](CC1CCC1)C(=O)O; βAla = NCCC(=O)O

What was measured:
[1] = target: T1, BMP4 (Homo sapiens, UniProt P12644); test: BMP4 signal transduction inhibitory activity: SMAD1 phosphorylation by BMP4 stimulus, AlphaLISA SureFire, A549 cells; type: cell-based; conditions: for aLISA BMP4: inhibition of SMAD1 phosphorylation by BMP4 stimulus, A549 cells; for aLISA BMP4 (0.2 nM) % inh: peptide conc. in assay 0.2, 2, 20 nM; for aLIZA BMP4 (0.2 nM) % inh: peptide 0.02, 0.2, 2 nM, Table 6
T1 sequence (P12644 293-408): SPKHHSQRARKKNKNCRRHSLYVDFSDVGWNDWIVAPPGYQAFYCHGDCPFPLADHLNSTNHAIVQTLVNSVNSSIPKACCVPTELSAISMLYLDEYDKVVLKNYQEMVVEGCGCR

[2] = target: T2, BMP7 (Homo sapiens, UniProt P18075); test: BMP7 signal transduction inhibitory activity: SMAD1 phosphorylation by BMP7 stimulus, A549 cells; type: cell-based; conditions: for aLISA BMP7: inhibition of SMAD1 phosphorylation by BMP7 stimulus, A549 cells; for aLISA BMP7 (10 nM) % inh: peptide conc. in assay 1, 10, 100 nM; for aLIZA BMP7 (10 nM) % inh: peptide 10, 100, 1000 nM, Table 6
T2 sequence (P18075 293-431): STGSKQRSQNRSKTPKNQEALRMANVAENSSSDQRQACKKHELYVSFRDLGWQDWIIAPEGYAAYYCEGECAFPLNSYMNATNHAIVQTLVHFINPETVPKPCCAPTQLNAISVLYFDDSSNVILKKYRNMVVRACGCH
How it was run: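 Inhibition was measured as loss of BMP7-induced SMAD1 phosphorylation, using 10 nM BMP7 on A549 cells. Most peptides were given as three-concentration sets, such as 1/10/100, 10/100/1,000, 100/300/1,000 or 10/30/90 nM. Others were given as eight 1/3-ratio dilutions from 100 or 1,000 nM, alongside Noggin as control.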

[3] = peptides of Synthesis 2, classes A-C, ND
[4] = peptides of Synthesis 2, classes A-D, ND
[5] = AlphaLISA, class by peptide concentration zone

## 146 ({CH2CO}-ERVYVDR[Bip]PY[Ala(4-THP)][Bip]Y[Phe(4-COOH)][Phe(4-COOH)]SCG-NH2; thioether N-17; not fully specified) [compound 146]
[1]; peptides of Synthesis 1, classes D-F, ND
  aLISA BMP4: D (showed 50% or more of inhibitory activity in 0.2 nM-addition zone)
[2]; peptides of Synthesis 1, classes E, F, ND
  aLISA BMP7: E (showed 50% or more of inhibitory activity in a zone to which the peptide was added in an amount of 10 nM)

## 403 (FG[NMeF]G[Bip]GDE[Cha][Aad][NMeF]L[cisHyp]CG-NH2; not fully specified) [compound 403]
[1]; BMP4 0.2 nM stimulus
  aLISA BMP4 (0.2 nM) % inh: ND (the inhibitory activity was less than 30% at the maximum concentration evaluated)
[2]; BMP7 10 nM stimulus
  aLISA BMP7 (10 nM) % inh: C (showed less than 30% of inhibitory activity in a zone to which the peptide was added in an amount of 1 nM and showed 30% or more of inhibitory activity in 10 nM-addition zone)

## 123 ({CH2CO}-ERV[Phe(4-COOH)]V[KCOpipzaa]R[Bip]PYV[Bip]Y[Phe(4-COOH)][Phe(4-COOH)]SC[βAla][dE]-OH; thioether N-17; not fully specified) [compound 123]
[1]; [3]
  aLISA BMP4: A (showed an inhibitory activity of 50% or more in a zone to which the peptide was added to in an amount of 0.2 nM)
[2]; [4]
  aLISA BMP7: C (showed less than 50% of inhibitory activity in 10 nM-addition zone and showed 50% or more of inhibitory activity in 100 nM-addition zone)

## 412 ([Phe(4-F)]G[NMeF]G[3Pal(6-Ph)]GDE[Cha][Aad][NMePhe(4-Me)]L[Phe(4-COOH)]C-NH2; not fully specified) [compound 412]
[1]; BMP4 0.2 nM stimulus
  aLISA BMP4 (0.2 nM) % inh: ND (the inhibitory activity was less than 30% at the maximum concentration evaluated)
[2]; BMP7 10 nM stimulus
  aLISA BMP7 (10 nM) % inh: D (showed less than 30% of inhibitory activity in 10 nM-addition zone and showed 30% or more of inhibitory activity in 100 nM-addition zone)

## 102 ({CH2CO}-E[KCOpipzaa]VYV[KCOpipzaa]R[Bip]SYV[Bip]Y[Phe(4-COOH)][Phe(4-COOH)]SC[βAla][dE]-OH; thioether N-17; not fully specified) [compound 102]
[1]; [3]
  aLISA BMP4: C (showed an inhibitory activity of less than 50% in 0.2 nM-addition zone and showed an inhibitory activity of 50% or more in 2 nM-addition zone were defined as B or C)
[2]; [4]
  aLISA BMP7: C (showed less than 50% of inhibitory activity in 10 nM-addition zone and showed 50% or more of inhibitory activity in 100 nM-addition zone)

## 65 (Ac-E[KCOpipzaa]VYVDR[Bip]PYP[Bip][Phe(4-F)][Phe(4-COOH)][Phe(4-COOH)]SCG-NH2; thioether (positions not given here); not fully specified (bridges)) [compound 65]
[1]; [5]
  aLISA BMP4: A (showed an inhibitory activity of 50% or more in a zone to which the peptide was added to in an amount of 0.2 nM)
[2]; [5]
  aLISA BMP7: C (showed less than 50% of inhibitory activity in 10 nM-addition zone and showed 50% or more of inhibitory activity in 100 nM-addition zone)

## 76 ({CH2CO}-E[KCOpipzaa]VYV[KCOpipzaa][KCOpipzaa][Bip]PYP[Bip][Phe(4-F)][Phe(4-COOH)][4Pal]SCG-NH2; thioether N-17; not fully specified) [compound 76]
[1]; [5]
  aLISA BMP4: C (showed an inhibitory activity of less than 50% in 0.2 nM-addition zone and showed an inhibitory activity of 50% or more in 2 nM-addition zone were defined as B or C)
[2]; [5]
  aLISA BMP7: C (showed less than 50% of inhibitory activity in 10 nM-addition zone and showed 50% or more of inhibitory activity in 100 nM-addition zone)

## 79 ({CH2CO}-E[KCOpipzaa]VYVDR[Bip][KCOpipzaa]YP[Bip][Phe(4-F)][Phe(4-COOH)][Phe(4-COOH)]SCG-NH2; thioether N-17; not fully specified) [compound 79]
[1]; [3]
  aLISA BMP4: C (showed an inhibitory activity of less than 50% in 0.2 nM-addition zone and showed an inhibitory activity of 50% or more in 2 nM-addition zone were defined as B or C)
[2]; [4]
  aLISA BMP7: D (showed less than 50% of inhibitory activity in 100 nM-addition zone)

## 109 ({CH2CO}-ERVYVDR[Bip]PY[Pro(cis-4-F)][Bip]Y[Phe(4-COOH)][Phe(4-COOH)]SC[βAla][dE]-OH; thioether N-17; not fully specified) [compound 109]
[1]; [3]
  aLISA BMP4: C (showed an inhibitory activity of less than 50% in 0.2 nM-addition zone and showed an inhibitory activity of 50% or more in 2 nM-addition zone were defined as B or C)
[2]; [4]
  aLISA BMP7: C (showed less than 50% of inhibitory activity in 10 nM-addition zone and showed 50% or more of inhibitory activity in 100 nM-addition zone)

## 316 (ERV[Phe(4-COOH)][Cba][KCOpipzaa]R[3Pal(6-Ph)][KCOpipzaa]Y[Hyp][Bph3F][4Pal][Phe(4-COOH)][Phe(4-COOH)]SCG-NH2; not fully specified) [compound 316]
[1]; BMP4 0.2 nM
  aLIZA BMP4 (0.2 nM) % inh: C (showed less than 30% of inhibitory activity in 0.2 nM-addition zone and showed 30% or more of inhibitory activity in 2 nM-addition zone)
[2]; BMP7 10 nM
  aLIZA BMP7 (10 nM) % inh: ND (the inhibitory activity was less than 30% at the maximum concentration evaluated)

## 97 ({CH2CO}-ERVYV[KCOpipzaa]R[Bip]SYP[Bip]Y[Phe(4-COOH)][Phe(4-COOH)]SC[βAla][dE]-OH; thioether N-17; not fully specified) [compound 97]
[1]; [3]
  aLISA BMP4: A (showed an inhibitory activity of 50% or more in a zone to which the peptide was added to in an amount of 0.2 nM)
[2]; [4]
  aLISA BMP7: B (showed less than 50% of inhibitory activity in 1 nM-addition zone and showed 50% or more of inhibitory activity in 10 nM-addition zone)

## 72 ({CH2CO}-ERVYVDR[Bip]PYP[Bip][Phe(4-F)][Phe(4-COOH)][4Pal]SCG-NH2; thioether N-17; not fully specified) [compound 72]
[1]; [5]
  aLISA BMP4: A (showed an inhibitory activity of 50% or more in a zone to which the peptide was added to in an amount of 0.2 nM)
[2]; [5]
  aLISA BMP7: C (showed less than 50% of inhibitory activity in 10 nM-addition zone and showed 50% or more of inhibitory activity in 100 nM-addition zone)

## 94 ({CH2CO}-A[KCOpipzaa]VYV[KCOpipzaa]R[Bip]PYV[Bip]Y[Phe(4-COOH)][Phe(4-COOH)]SC[βAla][dE]-OH; thioether N-17; not fully specified) [compound 94]
[1]; [3]
  aLISA BMP4: A (showed an inhibitory activity of 50% or more in a zone to which the peptide was added to in an amount of 0.2 nM)
[2]; [4]
  aLISA BMP7: C (showed less than 50% of inhibitory activity in 10 nM-addition zone and showed 50% or more of inhibitory activity in 100 nM-addition zone)

## 335 (FG[NMeF]G[Bip]GDD[Ala(cPent)]A[NMeF]LHCG-NH2; not fully specified (N-terminus, bridges)) [compound 335]
[1]; SMAD1 phosphorylation, BMP4 0.2 nM
  aLISA BMP4 (0.2 nM) % inh: ND (the inhibitory activity was less than 30% at the maximum concentration evaluated)
[2]; SMAD1 phosphorylation, BMP7 10 nM
  aLISA BMP7 (10 nM) % inh: D (showed less than 30% of inhibitory activity in 10 nM-addition zone and showed 30% or more of inhibitory activity in 100 nM-addition zone)

## 404 (FG[NMeF]G[Bip]GDE[Cha]Q[NMeF]L[Phe(4-COOH)]C-NH2; not fully specified) [compound 404]
[1]; BMP4 0.2 nM stimulus
  aLISA BMP4 (0.2 nM) % inh: ND (the inhibitory activity was less than 30% at the maximum concentration evaluated)
[2]; BMP7 10 nM stimulus
  aLISA BMP7 (10 nM) % inh: C (showed less than 30% of inhibitory activity in a zone to which the peptide was added in an amount of 1 nM and showed 30% or more of inhibitory activity in 10 nM-addition zone)

## 311 ({CH2CO}-ERV[Phe(4-COOH)]V[KCOpipzaa]R[3Pal(6-Ph)][KCOpipzaa]Y[Hyp][Bph3F]Y[Phe(4-COOH)][Phe(4-COOH)]SCG-NH2; thioether N-17 (inferred)) [compound 311]
[1]; BMP4 0.2 nM
  aLIZA BMP4 (0.2 nM) % inh: B (showed less than 30% of inhibitory activity in 0.02 nM-addition zone and showed 30% or more of inhibitory activity in 0.2 nM-addition zone)
[2]; BMP7 10 nM
  aLIZA BMP7 (10 nM) % inh: E (showed less than 30% of inhibitory activity in 100 nM-addition zone and showed 30% or more of inhibitory activity in 1,000 nM-addition zone)

## 50 (Ac-ARVYVDR[Bip]PYP[Bip]Y[Phe(4-COOH)][Phe(4-COOH)]SC[βAla]K(OCOmPEG10000)-NH2; thioether (positions not given here); not fully specified (bridges)) [compound 50]
[1]; [5]
  aLISA BMP4: D (showed inhibitory activity of less than 50% in 2 nM-addition zone)
[2]; [5]
  aLISA BMP7: B (showed less than 50% of inhibitory activity in 1 nM-addition zone and showed 50% or more of inhibitory activity in 10 nM-addition zone)
